The record followed here is patent US8012929B2, “Peptides directed for diagnosis and treatment of amyloid-associated diseases” (Tel Aviv University Future Technology Development L.P., priority 2002, dated 2011).

Square brackets hold non-standard residues; d marks the D form. Ends that are not written are not given here. Aib = CC(C)(N)C(=O)O

Assay [1] concerns the target T1, full-length IAPP polypeptide (Homo sapiens, UniProt P10997).
T1 construct: purchased CalBiochem (La Jolla Calif., USA)
T1 sequence (P10997 34-70 limits assumed): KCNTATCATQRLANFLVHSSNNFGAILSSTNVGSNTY
The assay can be described thus: ThT fluorescence assay of IAPP fibril formation with inhibitory peptides (Tris buffer). Format: biochemical. The note with it: for inhibition of IAPP aggregation (ThT endpoint): 4 μM IAPP, 40 μM inhibitory peptide, 142 hours of incubation. How it is done:
The ability of amyloidogenic peptides of IAPP, identified according to the teachings of the present invention to inhibit amyloid formation by the full-length polypeptide was tested by the addition of beta-breaker proline residues to the recognition sequence as set forth in the peptide sequence NFLVHPP (SEQ ID NO: 45). The degree of amyloid fibrils formation with and without the inhibitor was assessed using Thioflavin T (ThT) as molecular indicator. The degree of fluorescence of the ThT dye is directly correlated with the amount of amyloid fibrils in the solution [LeVine H 3rd. (1993) Protein Sci. 2:404-410. IAPP solutions ([…] hIAPPin 10 mM Tris buffer pH 7.2), were incubated in the presence or absence of 40[…] of the modified peptide (i.e., NFLVHPP) at room temperature. Fibril formation was determined by a ten fold dilution of the solutions into a solution that contained 3[…] thioflavin T (ThT) in 50 mM sodium phosphate pH 6.0 and determination of fluorescence at 480 nm with excitation at 450 nm using a LS50B spectroflurimeter (Perkin Elmar, Wellesley, Mass.). As a control 10 mM Tris buffer pH 7.2 were diluted into the ThT solution and fluorescence was determined as described.
The degree of amyloid fibril formation with and without the Aib inhibitor was assessed using thioflavin T (ThT) as molecular indicator. The degree of fluorescence of the ThT dye is directly correlated with the amount of amyloid fibrils in the solution [LeVine H 3rd. (1993) Protein Sci. 2:404-410].
[…]IAPP solutions (4 μM peptide in 10 mM Tris buffer pH 7.2), were incubated with or without 40 μM of the various peptide solutions at room temperature. Fibril formation was assessed by a ten fold diluation of the solutions into a solution which contained 3 μM thioflavin T (ThT) in 50 mM sodium phosphate pH 6.0 and determination of fluorescence at 480 nm with excitation at 450 nm using a Perkin Elmar LS50B spectroflurimeter. As a control a 10 mM Tris buffer pH 7.2 was diluted into the ThT solution and fluorescence was determined as described. […]

Assay [2] deals with T2, hIAPP1-37 (Homo sapiens, UniProt P10997).
T2 construct: purchased CalBiochem (La Jolla Calif., USA)
T2 sequence (P10997 34-70 limits assumed): T1 sequence (P10997 34-70 limits assumed)
As to the kind of experiment: Thioflavin T fluorescence assay of hIAPP fibrillization (sodium acetate buffer). The class given is biochemical. The conditions noted are these: 4 μM hIAPP1-37, 40 μM inhibitor, 10 mM sodium acetate pH 6.5. How it is done:
Thioflavin T fluorescence assay—hIAPP fibrillization was monitored by Thioflavin T dye binding assay. hIAPP1-37 stock solution was diluted to a final concentration of 4 μM in 10 mM sodium acetate buffer (pH 6.5) with or without inhibitors (40 μM), and a final concentration of HFIP of 1% (vol). Immediately after dilution, sample was centrifuged for 20 minutes in 20,000×g at 4° C. and the supernatant fraction was used for fluorescence measurements. In every measurement ThT was added to a 1 ml sample at a final concentration of 3 μM and measurements were effected by using Perkin-Elmer (excitation 450 nm, 2.5 nm slit; emission 480 nm 10 nm slit). Background was subtracted from all samples.

Turning to NFLVHPP, in assay [1] (hIAPP in 10 mM Tris pH 7.2 with or without modified peptide, room temperature), the “ThT fluorescence of IAPP in the presence of the inhibitory peptide” value is “significant increase in fluorescence”.
Take Aib-Phe-Phe ([Aib]-Phe-Phe) [EG12]: the “inhibition of IAPP aggregation (ThT endpoint)” value in assay [1] is recorded as “best inhibitor”.
In the case of D-Tyr-Aib [EG16], the “inhibition of IAPP aggregation (ThT endpoint)” value in assay [1] was “significant inhibitory effect on IAPP aggregation”. For the same substance, the “inhibition of IAPP fibrillization (ThT fluorescence at plateau)” value in assay [2] is on record as “effective inhibition”.
